Experimental data published in the RNAGym collection of RNA variant scans (doi:10.1073/pnas.2313332121).

B1: TPR t1 (parent)
chain: GACCAAUCUGCCCUCAGAGCUCGAGAACAUCUUCGGAUGCAGAGGAGGCAGGCUUCGGUGGCGCGAUAGCGCCAACGUCCUCAACCUCCAAUGCAUCCCACCACAUGAUGAUGCCUGAAGAGCCUUGGUUUUUUG

Variants of: B1
Assay: polymerase ribozyme fitness, log enrichment relative to wild type (log ratio); higher = more active; in vitro selection for triplet polymerase activity
Outline: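 Mutant libraries of both subunits of a heterodimeric triplet polymerase ribozyme were PCR-built, transcribed, and selected once in triplicate, with frozen incubation at −7 °C and capture of gel-excised extended constructs on streptavidin beads before RT-PCR. Illumina sequencing of input and output libraries was filtered to genotypes with ≥10 input reads and ≥1 read per output. Fitness is the logarithm of genotype enrichment over wild-type enrichment, using inverse-variance-weighted replicate averages. The logarithm is base 2.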

Variant | polymerase ribozyme fitness (log ratio)
GACCAAUCUGCCCUCAGAGCUCGAGAACAUCUUCGGAUGCAGAGGAGGCAGGCUUCGGCGGCGCGAUAGCGCCAACGUCCCCAACCUCCAAUGCAUCCCACCACAAGAUGAUGCCUGAAGAGCCUUGGUUUUUUG [U59C U81C U106A] | -0.294
GACCAAUCUGCCCUCAGAGCUCGAGAACAUCUUCGGAUGCAGAGGAGGCAGGCUUCGGCGGCGCGAUAGCGCCAACGUCCUCAACCUCCAAUGCAUCCCACCACAUGAUGAUGCCUUAAGAGCCUUGGUUUUUUG [U59C G117U] | -2.88
GACCAAUCUGCCCUCAGAGCUCGAGAACAUCUUCGGAUGCAGAGGAGGCAGGCUUCGGCGGCGCGAUAGCGCCAACGUCCUCAACCUCCAAUGCAUCCCACCACAUGAUGAUGCCUCAAGAGCCUUGGUUUUUUG [U59C G117C] | -3.91
GACCAAUCUGCCCUCAGAGCUCGAGAACAUCUUCGGAUGCAGAGGAGGCAGGCUUCGGGGGCGCGAUAGCGCCAACGCCCUCAACCUCCAAUGCAUCCCACCACAUGAUGAUGCUUGAAGAGCCUUGGUCUUUUG [U59G U78C C115U U130C] | -1.13
GACCAAUCUGCCCUCAGAGCUCGAGAACAUCUUCGGAUGCAGAGGAGGCAGGCUUCGGCGGCGCGAUAGCGCCAACGUCCUCAACCUCCAAUGCAUCCCACCACAUGAUGAAGCCUGAAGAGCCUUGGUUUUUUG [U59C U112A] | -0.182
GACCAAUCUGCCCUCAGAGCUCGAGAACAUCUUCGGAUGCAGAGGAGGCAGGCUUCGGGGGCGCGAUAGCGCCAACGUCCUCAACCUCCAAUGCAUCCCACCACAUGAUGGUGCCUGAAGAGCCUUGGUUUUUUG [U59G A111G] | 0.731
GACCAAUCUGCCCUCAGAGCUCGAGAACAUCUUCGGAUGCAGAGGAGGCAGGCUUCGGGGGCGCGAUAGCGCCAACGUCCUCAACCUCCAAUGCAUCCCAGCACAUGAUGAUGUCUGAAGAGCCUUGGUUUUUUG [U59G C101G C114U] | -2.59
GACCAAUCUGCCCUCAGAGCUCGAGAACAUCUUCGGAUGCAGAGGAGGCAGGCUUCGGGGGCGCGAUAGCGUCAACGUCCUCAACCUCCAAUGCAUCCCACCACAGGAUGAAGCCUGAAGAGCCUUGCUUUUUUG [U59G C72U U106G U112A G128C] | -4.15
GACCAAUCUGCCCUCAGAGCUCGAGAACAUCUUCGGAUGCAGAGGAGGCAGGCUUCGGGGGCGCGCUAGCGCCAACGUCCUCAACCUCCAAUGCAUCCCAGCACAUGAUGAUGCCUGAAGCGCCUUGGUUUCUUG [U59G A66C C101G A121C U132C] | -2.35
GACCAAUCUGCCCUCAGAGCUCGAGAACAUCUUCGGAUGCAGAGGAGGCAGGCUUCGGCGGCGCGAUAGCGCCAACGUCCUCAACCUCCAAUGCAUCCCACCACAUGAUGAUGCCUGAACAGCCUUGUUAUUUUG [U59C G120C G128U U130A] | 1.03
GACCAAUCUGCCCUCAGAGCUCGAGAACAUCUUCGGAUGCAGAGGAGGCAGGCUUCGGGGGCGCGAUAGCGCCAACGUCCUCAACCUCCAAUGCAUACCACCACAUGAUGAUGCCUGAAGAGCCUUGGUUUUUUG [U59G C97A] | -4.8
GACCAAUCUGCCCUCAGAGCUCGAGAACAUCUUCGGAUGCAGAGGAGGCAGGCUUCGGGGGCGCGAUAGCGCCAACGUCCUCAACCUCCAAUGCAUCCCACCACAUGAUGAGACCUGAAUAGCCUUGGUUUUUUG [U59G U112G G113A G120U] | -4.31
GACCAAUCUGCCCUCAGAGCUCGAGAACAUCUUCGGAUGCAGAGGAGGCAGGCUUCGGUAGCGCGUUAGCGCCAACGUCCUCAACCUCCAAUGCAUCCCACCACAUGAUGCUGCCUGAAGAGCCUUGGUUUUUUG [G60A A66U A111C] | -2.41
GACCAAUCUGCCCUCAGAGCUCGAGAACAUCUUCGGAUGCAGAGGAGGCAGGCUUCGGGGGCGCGAUAGCGCCAACGUCCUCAACUUCCAAUGCAUCCCACCACAUGAUGAUGCCUGAAGAGCCUUGGUUUUUUG [U59G C86U] | 0.709
GACCAAUCUGCCCUCAGAGCUCGAGAACAUCUUCGGAUGCAGAGGAGGCAGGCUUCGGGGGCGCGAUAGCGCCAACGUCCUCAACCUCCAAUGCAUCCCACCACAUGAUGAUACCUGAAGAGCCUUGGUUUUUUG [U59G G113A] | -1.96
GACCAAUCUGCCCUCAGAGCUCGAGAACAUCUUCGGAUGCAGAGGAGGCAGGCUUCGGCGGCGCGAUAGCGCCAACGUCCUCAACCUCCAAUGCAUCCCACCACAUGAUUAUGCCUGAAGAGCCUUGGUUUUUUG [U59C G110U] | -1.54
GACCAAUCUGCCCUCAGAGCUCGAGAACAUCUUCGGAUGCAGAGGAGGCAGGCUUCGGGGGCGCGAUAGCGCCAACGUCCUCAACUUCCAAUGCAUCCCACCACAUGAUGACGCCUGAAGAGCCUUGGUUUUUUG [U59G C86U U112C] | 1.02
GACCAAUCUGCCCUCAGAGCUCGAGAACAUCUUCGGAUGCAGAGGAGGCAGGCUUCGGGGGCGCGAUAGCUCCAACGUCCUCAACCUCCAAUGCAUCCCACCACAUGAUGAUGCCUGAACAGCCUUGGUAUUUUG [U59G G71U G120C U130A] | -4.75
GACCAAUCUGCCCUCAGAGCUCGAGAACAUCUUCGGAUGCAGAGGAGGCAGGCUUCGGGGGCGCGAUAGCGCCAACGUCCUCAAUCACCAAUGCAUCCCACCACAAGAUGAUGCCUGAAGAGCCUUGGUUUUUUG [U59G C85U U87A U106A] | -0.914
GACCAAUCUGCCCUCAGAGCUCGAGAACAUCUUCGGAUGCAGAGGAGGCAGGCUUCGGGGGCGCGAUAGCGCCAACGUCCUCAACCUCCAAUGCAUCCCACCACAUGAUGAUGCCUUAAGAGCCUUGGUUGUUUG [U59G G117U U131G] | -4.31
GACCAAUCUGCCCUCAGAGCUCGAGAACAUCUUCGGAUGCAGAGGAGGCAGGCUUCGGCGGCGCGAUAGCGCCAACGUCCUCAACCACCAAUGCAUCCCACCACAUGAUGAUGCCUGAAGAGCCUUGGUUUUUUG [U59C U87A] | -0.642
